The values that follow are results of earlier work, collected in publication PMC8625919.

Broadly, the Kd is the concentration at which binding is half-saturated.

Where “and” joins values, the source holds several entries; their conditions need not be identical. Identical values can stand only once.

The target of data set [1] is VEGFR-2D2-3 D2-3 (Homo sapiens) (UniProt P35968). Nature of the data set: SPR. Background: In SPR one partner is held on a chip, and binding of the other changes the refractive index at the surface.
For data set [2] the target is unchanged. Nature of the data set: ITC. Background: Isothermal titration calorimetry measures the heat released or taken up as one component is titrated into another.
Data set [3] deals with VEGFR-1D1-3 D1-3 (Homo sapiens) (UniProt P17948). Description: ITC.
Data set [4] concerns the target VEGFR-1D1-7 D1-7 (Homo sapiens) (UniProt P17948). Nature of the data set: ITC.
In another data set the target is VEGFR-2 (Homo sapiens) (UniProt P35968).
The target of data set [5] is Neuropilin-1 (Homo sapiens) (UniProt O14786). Nature of the data set: ELISA type assay with AP-VEGF164. A general note: ELISA stands for enzyme-linked immunosorbent assay.
Data set [6] has as its target VEGFR-3 D1-5 (Homo sapiens) (UniProt P35916).
For data set [7], the target named is VEGFR-3 D1-3 (Homo sapiens) (UniProt P35916).
Data set [8] deals with VEGFR-3 D1-2 (Homo sapiens) (UniProt P35916).
Data set [9] addresses VEGFR-3D1-5 D1-5 (Homo sapiens) (UniProt P35916). Nature of the data set: ITC.
Data set [10] has as its target VEGFR-3D1-3 D1-3 (Homo sapiens) (UniProt P35916). Nature of the data set: ITC.
For data set [11], the target named is VEGFR-3D1-2 D1-2 (Homo sapiens) (UniProt P35916). Nature of the data set: ITC.

Sequence of UniProt O14786 (O14786 22-923): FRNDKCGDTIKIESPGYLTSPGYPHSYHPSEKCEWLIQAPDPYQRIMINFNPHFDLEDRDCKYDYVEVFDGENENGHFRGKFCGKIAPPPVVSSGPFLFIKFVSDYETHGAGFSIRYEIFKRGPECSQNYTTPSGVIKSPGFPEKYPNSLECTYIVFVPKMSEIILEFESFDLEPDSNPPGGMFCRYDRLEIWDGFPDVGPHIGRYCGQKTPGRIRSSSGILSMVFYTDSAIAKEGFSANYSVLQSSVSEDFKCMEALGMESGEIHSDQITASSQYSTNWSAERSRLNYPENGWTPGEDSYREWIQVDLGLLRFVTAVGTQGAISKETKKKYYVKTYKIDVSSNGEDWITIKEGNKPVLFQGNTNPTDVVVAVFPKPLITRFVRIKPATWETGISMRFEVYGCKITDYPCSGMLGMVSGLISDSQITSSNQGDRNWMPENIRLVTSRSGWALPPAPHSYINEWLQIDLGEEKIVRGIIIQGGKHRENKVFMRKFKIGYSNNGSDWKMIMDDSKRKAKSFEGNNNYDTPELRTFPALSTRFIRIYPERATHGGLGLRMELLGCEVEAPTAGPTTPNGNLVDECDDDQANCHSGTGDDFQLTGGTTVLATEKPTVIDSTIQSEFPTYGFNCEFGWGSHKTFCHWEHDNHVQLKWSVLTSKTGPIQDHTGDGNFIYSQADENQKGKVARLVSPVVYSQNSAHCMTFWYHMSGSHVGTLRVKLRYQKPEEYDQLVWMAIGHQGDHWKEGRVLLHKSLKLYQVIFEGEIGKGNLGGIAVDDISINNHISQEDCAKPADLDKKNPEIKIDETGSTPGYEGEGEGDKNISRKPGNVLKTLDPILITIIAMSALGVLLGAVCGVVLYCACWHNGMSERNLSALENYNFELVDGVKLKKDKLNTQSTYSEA

On to VEGF165 (from UniProt P15692), for which the dissociation constant (Kd) in data set [1] is 0.0367 µM; in data set [2], 0.17 µM and 0.018 µM.
With VEGF-A (from UniProt P15692), the Kd in data set [3] is 0.047 µM; in [4], 0.0017 µM; with VEGFR-2 (Homo sapiens) it was 0.000113 µM.
Turning to VEGF164 (from UniProt Q00731), in data set [5], the Kd is 0.003 µM.
As to VEGF-C (from UniProt P49767), the Kd is 0.0037 µM in [6]; 0.0182 µM in [1]; 0.14 µM in data set [7]; 0.25 µM in data set [8]; 0.016 µM in [2]; 0.0037 µM in data set [9]. The Kd is 0.14 µM in data set [10] and 0.25 µM in [11].
